The labels stand for the following.
T1: fibrin
T1 chain 1: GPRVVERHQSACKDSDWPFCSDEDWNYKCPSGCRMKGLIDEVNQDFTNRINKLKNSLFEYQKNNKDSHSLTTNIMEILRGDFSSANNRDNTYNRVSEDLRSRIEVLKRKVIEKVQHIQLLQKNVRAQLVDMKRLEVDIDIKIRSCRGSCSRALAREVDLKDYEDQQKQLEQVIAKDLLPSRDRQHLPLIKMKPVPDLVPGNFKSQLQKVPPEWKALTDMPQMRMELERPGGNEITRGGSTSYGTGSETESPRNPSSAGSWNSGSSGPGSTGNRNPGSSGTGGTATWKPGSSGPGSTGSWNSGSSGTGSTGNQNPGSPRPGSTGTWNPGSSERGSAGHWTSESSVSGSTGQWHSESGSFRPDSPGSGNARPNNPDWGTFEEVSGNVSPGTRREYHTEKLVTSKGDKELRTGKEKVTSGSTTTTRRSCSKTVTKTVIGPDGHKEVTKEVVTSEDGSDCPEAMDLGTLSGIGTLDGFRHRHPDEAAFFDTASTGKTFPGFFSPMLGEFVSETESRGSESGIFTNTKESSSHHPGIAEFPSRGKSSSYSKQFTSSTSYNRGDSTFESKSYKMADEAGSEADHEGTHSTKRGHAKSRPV
T1 chain 2: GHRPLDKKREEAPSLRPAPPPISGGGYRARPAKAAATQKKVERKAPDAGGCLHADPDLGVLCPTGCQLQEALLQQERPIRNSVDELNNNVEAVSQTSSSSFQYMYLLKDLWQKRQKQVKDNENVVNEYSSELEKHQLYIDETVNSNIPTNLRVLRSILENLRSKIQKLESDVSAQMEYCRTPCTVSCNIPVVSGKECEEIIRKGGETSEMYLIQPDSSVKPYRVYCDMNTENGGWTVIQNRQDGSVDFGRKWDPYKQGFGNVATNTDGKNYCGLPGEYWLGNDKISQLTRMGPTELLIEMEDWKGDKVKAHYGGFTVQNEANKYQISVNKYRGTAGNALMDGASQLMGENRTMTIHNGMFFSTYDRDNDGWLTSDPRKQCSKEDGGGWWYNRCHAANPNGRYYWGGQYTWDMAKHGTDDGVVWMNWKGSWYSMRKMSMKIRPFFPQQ
T1 chain 3: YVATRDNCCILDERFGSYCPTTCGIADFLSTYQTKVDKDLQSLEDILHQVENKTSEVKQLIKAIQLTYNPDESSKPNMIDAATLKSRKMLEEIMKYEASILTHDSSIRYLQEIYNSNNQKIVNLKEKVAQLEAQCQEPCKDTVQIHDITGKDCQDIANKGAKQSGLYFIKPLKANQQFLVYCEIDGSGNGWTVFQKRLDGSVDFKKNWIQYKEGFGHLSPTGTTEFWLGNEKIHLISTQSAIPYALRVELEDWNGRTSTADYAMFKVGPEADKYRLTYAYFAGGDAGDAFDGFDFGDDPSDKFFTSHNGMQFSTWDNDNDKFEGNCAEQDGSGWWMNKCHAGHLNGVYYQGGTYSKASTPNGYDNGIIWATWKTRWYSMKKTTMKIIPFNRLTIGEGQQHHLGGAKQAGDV

B1: Ac-S(Galnac)-JWQPC*PWESWTFC*WDPGGGK-NH2 (peptide)
peptide: Ac-S(αGalNAc)[AEEA]WQPCPWESWTFCWDPGGGK-NH2
modifications: disulfide 6-14
SMILES: CC(=O)N[C@H]1[C@@H](OC[C@H](NC(C)=O)C(=O)NCCOCCOCC(=O)N[C@@H](Cc2c[nH]c3ccccc23)C(=O)N[C@@H](CCC(N)=O)C(=O)N2CCC[C@H]2C(=O)N[C@H]2CSSC[C@@H](C(=O)N[C@@H](Cc3c[nH]c4ccccc34)C(=O)N[C@@H](CC(=O)O)C(=O)N3CCC[C@H]3C(=O)NCC(=O)NCC(=O)NCC(=O)N[C@@H](CCCCN)C(N)=O)NC(=O)[C@H](Cc3ccccc3)NC(=O)[C@H]([C@@H](C)O)NC(=O)[C@H](Cc3c[nH]c4ccccc34)NC(=O)[C@H](CO)NC(=O)[C@H](CCC(=O)O)NC(=O)[C@H](Cc3c[nH]c4ccccc34)NC(=O)[C@@H]3CCCN3C2=O)O[C@H](CO)[C@H](O)[C@@H]1O
B2: Ac-RRGGWQPC*PWESWTFC*WDPGGGK-NH2 (peptide)
peptide: Ac-RRGGWQPCPWESWTFCWDPGGGK-NH2
modifications: disulfide 8-16
SMILES: CC(=O)N[C@@H](CCCNC(=N)N)C(=O)N[C@@H](CCCNC(=N)N)C(=O)NCC(=O)NCC(=O)N[C@@H](Cc1c[nH]c2ccccc12)C(=O)N[C@@H](CCC(N)=O)C(=O)N1CCC[C@H]1C(=O)N[C@H]1CSSC[C@@H](C(=O)N[C@@H](Cc2c[nH]c3ccccc23)C(=O)N[C@@H](CC(=O)O)C(=O)N2CCC[C@H]2C(=O)NCC(=O)NCC(=O)NCC(=O)N[C@@H](CCCCN)C(N)=O)NC(=O)[C@H](Cc2ccccc2)NC(=O)[C@H]([C@@H](C)O)NC(=O)[C@H](Cc2c[nH]c3ccccc23)NC(=O)[C@H](CO)NC(=O)[C@H](CCC(=O)O)NC(=O)[C@H](Cc2c[nH]c3ccccc23)NC(=O)[C@@H]2CCCN2C1=O
B3: Ac-WQPC*PAESWTFC*WDPGGGK-NH2 (peptide)
peptide: Ac-WQPCPAESWTFCWDPGGGK-NH2
modifications: disulfide 4-12
SMILES: CC(=O)N[C@@H](Cc1c[nH]c2ccccc12)C(=O)N[C@@H](CCC(N)=O)C(=O)N1CCC[C@H]1C(=O)N[C@H]1CSSC[C@@H](C(=O)N[C@@H](Cc2c[nH]c3ccccc23)C(=O)N[C@@H](CC(=O)O)C(=O)N2CCC[C@H]2C(=O)NCC(=O)NCC(=O)NCC(=O)N[C@@H](CCCCN)C(N)=O)NC(=O)[C@H](Cc2ccccc2)NC(=O)[C@H]([C@@H](C)O)NC(=O)[C@H](Cc2c[nH]c3ccccc23)NC(=O)[C@H](CO)NC(=O)[C@H](CCC(=O)O)NC(=O)[C@H](C)NC(=O)[C@@H]2CCCN2C1=O

As usually defined, the Kd is the equilibrium constant for the complex coming apart. A lower Kd goes with a tighter complex.

Bridge positions count the residues as written; N and C are the ends. Square brackets hold non-standard residues; d marks the D form. * marks the point of attachment. αGalNAc = CC(=O)N[C@@H]1[C@@H](O)[C@@H](O)[C@@H](CO)O[C@@H]1*; Hyp = O=C(O)[C@@H]1C[C@@H](O)CN1; Cha = N[C@@H](CC1CCCCC1)C(=O)O; CF5 = 5-carboxyfluorescein; AEEA = NCCOCCOCC(=O)O

One experiment concerns the target T1, fibrin. Description: fluorescence polarization, direct binding (n = 2). (Polarisation of emitted light reports the rotation of a fluorescent probe.)
Turning to Ac-SGSG[AEEA]WQPCPWESWTFCWDPGGGK(CF5)-NH2 (disulfide 9-17) [Ac-SGSGJWQPC*PWESWTFC*WDPGGGK(CF5)-NH2], binding was characterised by a dissociation constant (Kd) of 0.45 µM.

As to Ac-KKGWQPCPWESWTFCWDPGGGK(CF5)-NH2 (disulfide 7-15) [Ac-KKGWQPC*PWESWTFC*WDPGGGK(CF5)-NH2], the Kd is 0.71 µM.

As to Ac-SGSGSGSGWQPCPWESWTFCWDPGGGK(CF5)-NH2 (disulfide 12-20) [Ac-SGSGSGSGWQPC*PWESWTFC*WDPGGGK(CF5)-NH2], binding was put at a Kd of 0.47 µM.

As for Ac-SGSGSGSGWQPCPAESWTFCWDPGGGK(CF5)-NH2 (disulfide 12-20) [Ac-SGSGSGSGWQPC*PAESWTFC*WDPGGGK(CF5)-NH2], the Kd worked out at 0.53 µM.

Ac-KGKGKGWQPCPWESWTFCWDPGGGK(CF5)-NH2 (disulfide 10-18) [Ac-KGKGKGWQPC*PWESWTFC*WDPGGGK(CF5)-NH2] gave an equilibrium dissociation constant (Kd) of 0.76 µM.

As to Ac-WQPCPAESWT[Cha]CWDPGGGK(CF5)-NH2 (disulfide 4-12) [Ac-WQPC*PAESWT-Cha-C*WDPGGGK(CF5)-NH2], the Kd was determined as 0.17 µM.

Ac-GPPGWQPCPWESWTFCWDPGGGK(CF5)-NH2 (disulfide 8-16) [Ac-GPPGWQPC*PWESWTFC*WDPGGGK(CF5)-NH2] had a dissociation constant (Kd) of 0.25 µM.

Regarding Ac-S(αGalNAc)WQPCPWESWTFCWDPGGGK(CF5)-NH2 (disulfide 5-13) [Ac-S(Galnac)-WQPC*PWESWTFC*WDPGGGK(CF5)-NH2], the Kd amounted to 0.5 µM.

As to Ac-GPPGWQPCPAESWTFCWDPGGGK(CF5)-NH2 (disulfide 8-16) [Ac-GPPGWQPC*PAESWTFC*WDPGGGK(CF5)-NH2], the Kd came out at 0.31 µM.

In turn, Ac-RRGGWQPCPAESWTFCWDPGGGK(CF5)-NH2 (disulfide 8-16) [Ac-RRGGWQPC*PAESWTFC*WDPGGGK(CF5)-NH2] registered a Kd of 0.22 µM.

Consider Ac-GGRGWQPCPWESWTFCWDPGGGK(CF5)-NH2 (disulfide 8-16) [Ac-GGRGWQPC*PWESWTFC*WDPGGGK(CF5)-NH2], for which the Kd came out at 0.29 µM.

Molecule Ac-SGSG[AEEA]WQPCPAESWTFCWDPGGGK(CF5)-NH2 (disulfide 9-17) [Ac-SGSGJWQPC*PAESWTFC*WDPGGGK(CF5)-NH2] gave a Kd of 0.57 µM.

Molecule H-RGWQPCPWESWTFCWDPGGGK(CF5)-NH2 (disulfide 6-14) [RGWQPC*PWESWTFC*WDPGGGK(CF5)-NH2] showed a Kd of 0.28 µM.

Take Ac-GGRGWQPCPAESWTFCWDPGGGK(CF5)-NH2 (disulfide 8-16) [Ac-GGRGWQPC*PAESWTFC*WDPGGGK(CF5)-NH2]: the affinity, expressed as Kd, was 0.52 µM.

Regarding Ac-GWQPCPWESWTFCWDPGGGK(CF5)-NH2 (disulfide 5-13) [Ac-GWQPC*PWESWTFC*WDPGGGK(CF5)-NH2], the affinity, expressed as Kd, was 0.23 µM.

Ac-RWQPCPAESWT[Cha]CWDPGGGK(CF5)-NH2 (disulfide 5-13) [Ac-RWQPC*PAESWT-Cha-C*WDPGGGK(CF5)-NH2] registered a Kd of 0.08 µM.

The next experiment deals with T1, fibrin. Description: competition fluorescence polarization assay (n = 2).
Ac-KKGWQPCPWESWTFCWDPGGGK-NH2 (disulfide 7-15) [Ac-KKGWQPC*PWESWTFC*WDPGGGK-NH2]: the “Rel IC50” value was 0.357 ratio to Ac-Seq000-GGGK-NH2.

Ac-GPPGWQPCPWESWTFCWDPGGGK-NH2 (disulfide 8-16) [Ac-GPPGWQPC*PWESWTFC*WDPGGGK-NH2]: the “Rel IC50” value was 0.235 ratio to Ac-Seq000-GGGK-NH2.

As for Ac-SGSG[AEEA]WQPCPWESWTFCWDPGGGK-NH2 (disulfide 9-17) [Ac-SGSGJWQPC*PWESWTFC*WDPGGGK-NH2], the “Rel IC50” value was 0.714 ratio to Ac-Seq000-GGGK-NH2.

Consider Ac-WQPC[Hyp]WESWTFCWDPGGGK-NH2 (disulfide 4-12) [Ac-WQPC*-Hypt4-WESWTFC*WDPGGGK-NH2], for which the “Rel IC50” value was 0.55 ratio to Ac-Seq000-GGGK-NH2.

Regarding Ac-GGRGWQPCPWESWTFCWDPGGGK-NH2 (disulfide 8-16) [Ac-GGRGWQPC*PWESWTFC*WDPGGGK-NH2], the “Rel IC50” value is 0.37 ratio to Ac-Seq000-GGGK-NH2.

For H-RGWQPCPWESWTFCWDPGGGK-NH2 (disulfide 6-14) [RGWQPC*PWESWTFC*WDPGGGK-NH2], the “Rel IC50” value was 0.511 ratio to Ac-Seq000-GGGK-NH2.

With B1, the “Rel IC50” value was 1.15 ratio to Ac-Seq000-GGGK-NH2.

With B2, the “Rel IC50” value is 0.125 ratio to Ac-Seq000-GGGK-NH2.

Ac-KGKGKGWQPCPWESWTFCWDPGGGK-NH2 (disulfide 10-18) [Ac-KGKGKGWQPC*PWESWTFC*WDPGGGK-NH2]: the “Rel IC50” value was 0.595 ratio to Ac-Seq000-GGGK-NH2.

On to Ac-SGSGSGSGWQPCPWESWTFCWDPGGGK-NH2 (disulfide 12-20) [Ac-SGSGSGSGWQPC*PWESWTFC*WDPGGGK-NH2], for which the “Rel IC50” value was 0.527 ratio to Ac-Seq000-GGGK-NH2.

Regarding H-RWQPCPWESWTFCWDPGGGK-NH2 (disulfide 5-13) [RWQPC*PWESWTFC*WDPGGGK-NH2], the “Rel IC50” value is 0.47 ratio to Ac-Seq000-GGGK-NH2.

With Ac-S(αGalNAc)WQPCPWESWTFCWDPGGGK-NH2 (disulfide 5-13) [Ac-S(Galnac)-WQPC*PWESWTFC*WDPGGGK-NH2], the “Rel IC50” value is 0.559 ratio to Ac-Seq000-GGGK-NH2.

B3: the “Rel IC50” value was 0.875 ratio to Ac-Seq000-GGGK-NH2.

The values are drawn from patent publication US20100202967A1 (BRACCO IMAGING, published 2010).
